Laboratory results from US10450368.

Assays:
RSC3 delta371I = assay: ELISA
[1] = biological target: CH505.TF mutant gp120 M8 (HIV-1); assay: direct-binding ELISA (OD450), panel 'CH505.TF gp120 M8'
[2] = biological target: HIV-1 Env resurface core protein 3 (RSC3); assay: direct-binding ELISA (OD450), panel 'RSC3'
CH505.TF gp120 delta371I = assay: direct-binding ELISA (OD450), panel 'CH505.TF gp120 delta371I'

With 2G12 (antibody) the EC50 (read off the curve) (RSC3 delta371I) was 0.01 µg/mL, the EC50 (read off the curve) [1] was 0.2 µg/mL and the EC50 (read off the curve) [2] was 0.01 µg/mL. It also gave an EC50 (read off the curve) (CH505.TF gp120 delta371I) of 0.2 µg/mL.
